# Measured values: paper PMC7807878, “Development of an engineered peptide antagonist against periostin to overcome doxorubicin resistance in breast cancer” (BMC Cancer, 2021)
# B1: rPN: recombinant PN (periostin), BioVendor (protein)
# chain: NNHYDKILAHSRIRGRDQGPNVCALQQILGTKKKYFSTCKNWYKKSICGQKTTVLYECCPGYMRMEGMKGCPAVLPIDHVYGTLGIVGATTTQRYSDASKLREEIEGKGSFTYFAPSNEAWDNLDSDIRRGLESNVNVELLNALHSHMINKRMLTKDLKNGMIIPSMYNNLGLFINHYPNGVVTVNCARIIHGNQIATNGVVHVIDRVLTQIGTSIQDFIEAEDDLSSFRAAAITSDILEALGRDGHFTLFAPTNEAFEKLPRGVLERIMGDKVASEALMKYHILNTLQCSESIMGGAVFETLEGNTIEIGCDGDSITVNGIKMVNKKDIVTNNGVIHLIDQVLIPDSAKQVIELAGKQQTTFTDLVAQLGLASALRPDGEYTLLAPVNNAFSDDTLSMDQRLLKLILQNHILKVKVGLNELYNGQILETIGGKQLRVFVYRTAVCIENSCMEKGSKQGRNGAIHIFREIIKPAEKSLHEKLKQDKRFSTFLSLLEAADLKELLTQPGDWTLFVPTNDAFKGMTSEEKEILIRDKNALQNIILYHLTPGVFIGKGFEPGVTNILKTTQGSKIFLKEVNDTLLVNELKSKESDIMTTNGVIHVVDKLLYPADTPVGNDQLLEILNKLIKYIQIKFVRGSTFKEIPVTVYTTKIITKVVEPKIKVIEGSLQPIIKTEGPTLTKVKIEGEPEFRLIKEGETITEVIHGEPIIKKYTKIIDGVPVEITEKETREERIITGPEIKYTRISTGGGETEETLKKLLQEEVTKVTKFIEGGDGHLFEDEEIKRLLQGDTPVRKLQANKKVQGSRRRLREGRSQ
# Legend:
# Type in all cases: cell-based
# MDA-MB-231 cells [1] = experiment: Proliferation assay (MTS), MDA-MB-231; conditions: rPN 100 ng/ml, 72 h, P-value = 0.004
# Protocol: (§1) The proliferation assay of BCA cells was determined by the cell viability assay using CellTiter 96® Aqueous One Solution Cell Proliferation Assay (MTS assay) (Promega, Madison, WI, USA). Briefly, 3 × 10^3 cells in 100 μl medium were seeded in 96-well plates for 24 h. The day 1 baseline determination used the MTS assay following company instructions. For the experiment, cells were placed into new media containing 2% FBS with or without rPN (100 ng/ml) and anti-PN peptide (1 μM) and cells were cultured for a further 72 h. After treatment, cell viability was measured by the MTS assay. Proliferation rate was calculated as the folding of cell numbers increased from the baseline.
# MCF-7 cells [2] = experiment: Proliferation assay (MTS), MCF-7; conditions: rPN 100 ng/ml, 72 h, not statistically significant
# Protocol: as §1
# MDA-MB-231 cells [3] = experiment: Wound healing migration assay, MDA-MB-231; conditions: rPN 100 ng/ml vs untreated control; P-value = 0.033
# Protocol: (§2) The wound healing assay was performed to determine migration activity of the BCA cells after treatment under various conditions. Briefly, 5 × 10^4 cells of parental BCA cells or mock/PN-transfected cells were seeded in 24-well culture plates with their regular media for 24 h and media changed to 1% FBS with or without rPN (100 ng/ml) and anti-PN peptide (1 μM) and culture continued for 1 day until they reached approximately 95% confluency. Wounds were applied by scratching using 200 μl micropipette tip in a single straight line. The media with floating cells would be removed and refilled with the new experimental media. The culture process would be continued for a further 24 h and photos of the area would be taken at 8 h intervals. The migration area would be analyzed from the photos taken using TScratch version 1.0 software (https://github.com/cselab/TScratch) and migration activity calculated as μm^2/h. Independent duplicated experiments were performed.
# MCF-7 cells [4] = experiment: Wound healing migration assay, MCF-7; conditions: rPN 100 ng/ml vs untreated control; P-value = 0.030
# Protocol: as §2
# MDA-MB-231 cells [5] = experiment: Drug sensitivity (MTS), MDA-MB-231; conditions: doxorubicin treated MDA-MB-231, rPN treatment experiment
# Protocol: (§3) Determination the IC50 of BCA cells in response to chemotherapeutic drugs was analyzed by MTS assay. The experiment started from 5 × 10^3 of BCA cells in 100 μl medium that were seeded in 96-well plates for 24 h, then media was changed with different concentrations of new chemotherapeutic drugs [doxorubicin (S1208), paclitaxel (S1150), cisplatin (S1166), 5-fluorouracil (5-FU) (S1209) and gemcitabine (S1714) that were purchased from Selleck Chemicals, Houston, TX, USA] with or without rPN and anti-PN peptide for a further 48 h. After that, cell viability was determined by the MTS assay. Combination index (CI) was calculated by IC50 of combination of drug and PN or anti-PN peptide divided by IC50 of chemotherapeutic drug alone.
# (§4) ANOVA test or Student’s t-test were applied for statistical analysis of the experiments. GraphPad Prism® version 7.04 software (GraphPad Software, San Diego, CA, USA) was used in calculation of IC50 values of chemotherapeutic drugs and PASW Statistics software version 18 (SPSS, IBM, Armonk, NY, USA) was used for other analysis. Dose-responses were compared by Holm-Sidak’s multiple comparison test. Mann-Whitney ranked-sum test was used for comparisons between normal and patient serum PN. Chi-square or Fisher’s exact test were used to determine the correlation between PN expression and clinical data in BCA patients. […]
# MCF-7 cells [6] = experiment: Drug sensitivity (MTS), MCF-7; conditions: doxorubicin treated MCF-7, rPN treatment experiment
# Protocol: as §3, §4
# [7] = tested on: Akt phosphorylation (pAKT) in BCA cells; experiment: Western blot, Akt phosphorylation; conditions: parental BCA cells (MDA-MB-231, MCF-7), PN alone, duplicate experiments
# Protocol: (§5) To determine the secreted PN amount in conditioned-media of each cell, 3 × 10^5 cells were seeded into 6-well plates with 3 ml of complete media. Cell media were removed the next day and washed with phosphate-buffered saline (PBS), and serum free media was added. Media was collected at 24 h, centrifuged and supernatant was taken and concentrated by Vivaspin®6 (VS0691, Sartorius, Goettingen, Germany). Protein concentration was determined by Bradford reagent (#5000006, Bio-Rad Laboratories, Hercules, CA, USA) and the amounts were adjusted to 5 μg per loading. To determine protein expression or phosphorylation in the cellular part, 2 × 10^6 cells were lysed with RIPA buffer (sc-24,948, Santa Cruz Biotechnology, Inc., Dallas, TX, USA). Each sample was separated by sodium dodecyl sulfate (SDS) polyacrylamide gel electrophoresis (PAGE) and transferred to PVDF membrane. […] HRP was detected by Pierce™ enhanced chemiluminescence (ECL) reagent (Thermo Fisher Scientific) and chemiluminescence signal was detected by G:BOX gel documentation system (Syngene, Cambridge, UK). Expression level of PN was determined by ImageJ version 1.52a software (National Institutes of Health, Bethesda, MD, USA).
# (§6) Parental BCA cells were treated with PN and anti-PN peptides and the intracellular signaling pathway determined by western blot analysis. Akt phosphorylation and expression of survivin were detected. […]
# [8] = tested on: survivin expression in BCA cells; experiment: Western blot, survivin expression; conditions: parental BCA cells (MDA-MB-231, MCF-7), PN alone, duplicate experiments
# Protocol: as §5, §6
molecule,measurement,setting,value
B1,Effect of rPN on proliferation,MDA-MB-231 cells [1],significantly showed induction of cell proliferation
same,Effect of rPN on proliferation,MCF-7 cells [2],could increase cell numbers
same,Effect of rPN on migration rate,MDA-MB-231 cells [3],had a higher migration rate than the untreated control with statistical significance
same,Effect of rPN on migration rate,MCF-7 cells [4],had a higher migration rate than the untreated control with statistical significance
same,Combination index (CI) of PN,MDA-MB-231 cells [5],2.36
same,Combination index (CI) of PN,MCF-7 cells [6],1.39
same,Effect of PN on Akt phosphorylation,[7],could increase phosphorylation of Akt
same,Effect of PN on survivin expression,[8],could increase phosphorylation of Akt and survivin expression in all BCA cells
